The assay concerns the target Human Angiotensin-converting enzyme 2 (ACE2) (human). Put plainly: MST; Monolith NT.115, standard glass capillaries; ACE2 labelled with NT-647 (NHS ester); ACE2 serially diluted across 16 tubes in 10 mM phosphate buffer pH 7.4, mixed 1:1 with RBDs or RBDdopa's, 15 min at RT; 40-60% MST power; apparent KD.

“Native SARS-CoV-2 RBD (Arg319-Phe541) without any mutation (domain or fragment; other documents disagree on this pair)”: the Kd came out at 5.4 µM.

For the origin of these results see publication PMC12828769.
